Assay results published in US20180148496A1 (HUAHUI HEALTH, published 2018).
Where a chain is given by its changes, count along the chain named.

How the values were obtained:
[1] = molecular target: T1, NC36b: peptide comprising residues 4-38 of the pre-S1 domain of HBV L protein with a biotin modification at … (Hepatitis B virus (genotype  …, C-terminal K-Biotin)); experiment: ELISA on peptide captured by streptavidin
T1 peptide: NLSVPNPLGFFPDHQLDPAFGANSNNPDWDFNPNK

[2] = molecular target: pre-S1 domain of the L envelope protein on HBV (genotype D) virus (Hepatitis B virus genotype D); experiment: cell-based or functional assay
[3] = molecular target: pre-S1 domain of the L envelope protein on HBV (genotype B) virus (Hepatitis B virus genotype B); experiment: cell-based or functional assay
[4] = molecular target: pre-S1 domain of the L envelope protein on HBV (genotype C) virus (Hepatitis B virus genotype C); experiment: cell-based or functional assay

B1: m1Q (antibody, V domains shown)
VH: QVQLVESGGGVVQPGRSLRLSCAASGFTFSSYAMHWVRQAPGKGLEQVAVISYDGSNKYYVDSVKGRFTISRDNSKNTLYLQMNSLRAEDTAVYYCARSTYGMDVWGQGTTVTVSS
VL: DVVMTQSPLSLPVTLGQSASISCRSSQSLVHSDGNTYLNWFQQRPGQSPRRLIYKVSNRDSGVPDRFSGSGSDTDFTLEISRVEAEDVGIYYCMQGTHWWTFGQGTKLDIK
notes: also called m10Q (label of the VL entry)
binding result [1]: binds

B2: m36 (antibody, V domains shown)
VH: QMQLVQSGGGLVQPGRSLRLSCAASGFTFDDYAMHWVRQAPGKGLEWVSGISWNSGSIGYADSVKGRFTISRDNAKNSLYLQMNSLRAEDTALYYCAKTSYGGAFDIWGQGTMVTVSS
VL: QPVLTQSPSASGTPGQRVTISCSGNTSNIGSYYAYWYQQLPGTAPKLLIYDNNQRPSGIPARFSGSKSGTSASLAISGLQSEDEADYYCATWDDSLNGPVFGGGTKVTVL
binding result [1]: binds

B3: A14 (antibody, V domains shown)
VH: QVQLQQSGPGLVKPSQTLSLTCAISGDSVSSNSAAWNWIRQSPSRGLEWLGRTYYRSKWYNDYAVSVKSRITINPDTSKNQFSLQLNSVTPEDTAVYYCARGTRWGMDVWGQGTLVTVSS
VL: QSVLTQPPSASGTPGQRVTISCSGSSSNIGSYYVYWYQQFPGTAPKLLIYGNNQRPSGVPDRFSGSKSGTSASLAITGLQAEDEADYYCQSYDSSLSGVIFGGGTKLTVL
HBV (genotype D) neutralization activity, against HBIG [2]: > 1000 fold | IC50 of HBV neutralization, genotype D [2]: 0.01 nM | IC50 of HBV neutralization, genotype B [3]: 0.08 nM | IC50 of HBV neutralization, genotype C [4]: 0.03 nM

B4: #8 (antibody, V domains shown)
VH: B3 VH
VL: QSVVTQPPSVSAAPGQKVTISCSGSSSNIGNYYVSWYQHLPGTAPKLLIYDNAKRPSGIPDRFSGSKSGTSATLGITGLRAEDEADYYCQSYDNSLSGLVFGGGTKLTVL
HBV (genotype D) neutralization, against A14 [2]: 5 fold

B5: 2H5 (antibody, V domains shown)
VH: B3 VH with A23G, N32K, Y60H, T103Q, R104M, W105G, G106A, M107L, L115T
VL: B3 VL
IC50 in HBV infection assay, against KR127 [2]: 11 fold
